Test in all cases: library pulldown, LC-MS of supernatant; ratio vs GFP-Nb control (0=captured, 1=not captured)
One assay has as its target T1, BC2T D2T (human).
T1 construct: position 2 library, row T
T1 peptide: Ac-PTRKAAVSHWQQ-NH2
The gist of the method:
(§1)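 Unbound peptide left in supernatant after 1 h pulldown in PBS/0.01% CHAPS measured by reversed-phase LC-MS (8–30% eluent B gradient, 20 min).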

In another assay the target is T2, BC2T A5C(Abu) (human, SMILES …).
T2 construct: position 5 library, row C(Abu) / C*
T2 peptide: Ac-PDRK[GABA]AVSHWQQ-NH2
In a few lines: as §1

A further assay addresses T3, BC2T R3D (human).
T3 construct: position 3 library (BC2TR3X), row D
T3 peptide: Ac-PDDKAAVSHWQQ-NH2
The gist of the method: as §1

The next assay has as its target T4, BC2T D2S (human).
T4 construct: position 2 library, row S
T4 peptide: Ac-PSRKAAVSHWQQ-NH2
The gist of the method:
as §1

The target of the next assay is T5, BC2T A6C(Abu) (human, SMILES …).
T5 construct: position 6 library (BC2TA6X), row C(Abu) / C*
T5 peptide: Ac-PDRKA[GABA]VSHWQQ-NH2
In a few lines: as §1

Another assay has as its target T6, BC2T P1F (human).
T6 construct: position 1 library, row F
T6 peptide: Ac-FDRKAAVSHWQQ-NH2
In a few lines:
as §1

In the next assay the target is T7, BC2T A6Q (human).
T7 construct: position 6 library (BC2TA6X), row Q
T7 peptide: Ac-PDRKAQVSHWQQ-NH2
The gist of the method: as §1

Another assay addresses T8, BC2T D2E (human).
T8 construct: position 2 library, row E
T8 peptide: Ac-PERKAAVSHWQQ-NH2
The gist of the method:
as §1

The target in another assay is T9, BC2T A6E (human).
T9 construct: position 6 library (BC2TA6X), row E
T9 peptide: Ac-PDRKAEVSHWQQ-NH2
The gist of the method:
as §1

A further assay deals with T10, BC2T P1K (human).
T10 construct: position 1 library, row K
T10 peptide: Ac-KDRKAAVSHWQQ-NH2
The gist of the method:
as §1

For a further assay, the target named is T11, BC2T A6F (human).
T11 construct: position 6 library (BC2TA6X), row F
T11 peptide: Ac-PDRKAFVSHWQQ-NH2
The gist of the method: as §1

The next assay deals with T12, BC2T D2H (human).
T12 construct: position 2 library, row H
T12 peptide: Ac-PHRKAAVSHWQQ-NH2
The gist of the method:
as §1

The target in a further assay is T13, BC2T A6H (human).
T13 construct: position 6 library (BC2TA6X), row H
T13 peptide: Ac-PDRKAHVSHWQQ-NH2
In a few lines: as §1

The target of another assay is T14, BC2T R3F (human).
T14 construct: position 3 library (BC2TR3X), row F
T14 peptide: Ac-PDFKAAVSHWQQ-NH2
In a few lines:
as §1

The target of another assay is T15, BC2T P1R (human).
T15 construct: position 1 library, row R
T15 peptide: Ac-RDRKAAVSHWQQ-NH2
In a few lines: as §1

A further assay addresses T16, BC2T K4N (human).
T16 construct: position 4 library, row N
T16 peptide: Ac-PDRNAAVSHWQQ-NH2
In a few lines:
as §1

For the next assay, the target named is T17, BC2T K4R (human).
T17 construct: position 4 library, row R
T17 peptide: Ac-PDRRAAVSHWQQ-NH2
The gist of the method: as §1

Another assay deals with T18, BC2T K4W (human).
T18 construct: position 4 library, row W
T18 peptide: Ac-PDRWAAVSHWQQ-NH2
In a few lines: as §1

The target of another assay is T19, BC2T A5F (human).
T19 construct: position 5 library, row F
T19 peptide: Ac-PDRKFAVSHWQQ-NH2
The gist of the method: as §1

The target in the next assay is T20, BC2T A5S (human).
T20 construct: position 5 library, row S
T20 peptide: Ac-PDRKSAVSHWQQ-NH2
The gist of the method:
as §1

Another assay addresses T21, BC2T A5E (human).
T21 construct: position 5 library, row E
T21 peptide: Ac-PDRKEAVSHWQQ-NH2
In a few lines:
as §1

The target of another assay is T22, BC2T V7H (human).
T22 construct: position 7 library, row H
T22 peptide: Ac-PDRKAAHSHWQQ-NH2
In a few lines:
as §1

Here are results for two molecules from US20170137467A1 (CHROMOTEK, published 2017).

Substitutions are numbered along the chain they refer to. Square brackets hold non-standard residues; d marks the D form. GABA = NCCCC(=O)O

B1: BC2 nanobody (BC2-Nb) (VHH)
VHH: QVQLVESGGGLVQPGGSLTLSCTASGFTLDHYDIGWFRQAPGKEREGVSCINNSDDDTYYADSVKGRFTIFMDNAKDTVYLQMNSLKPEDTAIYYCAEARGCKRGRYEYDFWGQGTQVTVSS
notes: immobilised on agarose/sepharose beads in this assay; also called BC2 nanotrap (immobilised form); not shown: C-terminal 6xHis-tag added by pHEN6 vector
As for B1, the ratio in the assay with BC2T D2T is 0.1; in the assay with BC2T A5C(Abu) it was 0.1; with BC2T R3D, 1; in the assay with BC2T D2S, 0.1; with BC2T A6C(Abu), 0.1; with BC2T P1F, 0.2. Moreover, the ratio with BC2T A6Q came out at 1; with BC2T D2E it was 0.2; with BC2T A6E it was 1.1; with BC2T P1K, 0.3; with BC2T A6F, 1; with BC2T D2H, 0.1. In addition, the ratio with BC2T A6H was determined as 1.1; with BC2T R3F, 0.8; with BC2T P1R, 0.2; with BC2T K4N, 0.5; in the assay with BC2T K4R, 0.1; with BC2T K4W, 0.3. Also, the ratio is 0.1 with BC2T A5F, 0.1 with BC2T A5S, 0.2 with BC2T A5E and 0.3 with BC2T V7H.

B2: BC2-NbR106S (VHH)
VHH: B1 VHH with R106S
notes: immobilised on beads in this assay; not shown: C-terminal 6xHis-tag added by pHEN6 vector
With B2, the ratio with BC2T D2T came to 0.2; with BC2T A5C(Abu) it was 0.3; with BC2T R3D it was 1; in the assay with BC2T D2S, 0.3; with BC2T A6C(Abu) it was 0.3; in the assay with BC2T P1F, 0.3. For the same molecule, the ratio in the assay with BC2T A6Q worked out at 0.9; with BC2T D2E, 0.4; in the assay with BC2T A6E, 1; with BC2T P1K it was 0.5; in the assay with BC2T A6F, 0.9; with BC2T D2H, 0.2. Besides, the ratio stood at 0.9 in the assay with BC2T A6H; 1 with BC2T R3F; 0.4 with BC2T P1R; 0.9 in the assay with BC2T K4N; 0.1 with BC2T K4R; 0.8 in the assay with BC2T K4W. The ratio was 0.2 with BC2T A5F, 0.4 with BC2T A5S, 0.7 with BC2T A5E and 0.4 with BC2T V7H.
